# According to the supplement of paper PMC12764529:
# ± gives the half width of the 95% confidence interval.
# Test: folding stability dG unfold (combined trypsin and chymotrypsin); higher = more stable
# Outline: (§1)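 K50 was inferred by Bayesian fitting of sequencing counts obtained after protease digestion of designed mini-proteins. Unfolding free energy was derived by comparison with a sequence-predicted unfolded-state K50 and a shared folded-state K50, for each protease or both combined. The mini-proteins were under 80 residues, had no cysteine, were carried in a PA-tagged cDNA display construct, and were kept only if AlphaFold2 dimer inter-PAE exceeded 15.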
row,Sequence,folding stability dG unfold
1,SAGGMLTLTDPETGVPYTGTPVSTTTTTVVLTTPDGTPVETVTVTVTTYEFTAPDGTPVTLTETTGLSAGGS [r8_214_JUSTAS],2.08 ± 0.052 kcal/mol
2,SAGGSAGGSAGGMEKVTEVKPVATLPNGTVVTETLVTYTAPNGPEIGEEVVLTEDPVPKSAGGSAGGSAGGS [r10_941_JUSTAS],-0.455 ± 0.15 kcal/mol
3,SAGGSAGGSWDRIKDALRKYGFPPENVKIEFETYPNGNMNVMIRHNGEQIPRNRINKAIQELMSAGGSAGGS [r12_175_TrROS],1.54 ± 0.22 kcal/mol
4,MVLDAGISRKDFINNKPIKVETALKKLAEILGGPNFKPKVKPSKKDYLVAVIELPDGRKLLLKDDKDIKISS [r1_168_TrMRF],0.377 ± 0.14 kcal/mol
5,SAGGSAGGSAEYIVVNSDEQLKALKELGGVKEVERKENFVVVEFPDIPPELREKLLEVIKESAGGSAGGSAG [r3_398_TrMRF],-0.366 ± 0.5 kcal/mol
6,SAGGSAKITIEYDPETGTITIKVELTNEDNGKKVTKEYEIKVDGKLIRIKIDANTGEIVEIEVLPPSAGGSA [r2_331_TrROS_Hall],3.55 ± 0.15 kcal/mol
7,SAGGSAKTIKIWIPVKGMTPEMLEEIARDILEELGMKVDIEPHPGDGYIEVTFKLPGKDIEIIIPWSAGGSA [r15_168_TrROS],2.61 ± 0.16 kcal/mol
8,SKTYTAEEIKKLFPNIKKVEVKDGKVRLTVENENGEKFEIEITFEAPKPEPEVEEEVEKKKEEELSEEDLSA [r9_427_TrROS_Hall],1.65 ± 0.31 kcal/mol
9,SAMKETEIPDPVTGNTYTVIDFDDATVVIKNYPDSLTITIIPPPSNTSTTIPMKPGEEEKVLKELGIPPSAG [r14_4_JUSTAS],0.568 ± 0.16 kcal/mol
10,SAGMVEVSVTVSPRADGTITVTITLTKTFPVKDSKGNLYLETTTKTVTVPVTSLEEAPVIVKEVIDKLSAGG [r19_218_JUSTAS],3.54 ± 0.15 kcal/mol
11,SAGGSAGGMVTSTDPATGIVYSLDPTTGVWSAQTVTLPPITIPVSEVPELLKALPPGTPILVLASAGGSAGG [r6_104_JUSTAS],1.14 ± 0.037 kcal/mol

# Test: folding stability dG unfold from chymotrypsin proteolysis; higher = more stable
# Outline: as §1
row,Sequence,folding stability dG unfold
1,SAGGMEIVSSGSLEEAIALLKENPNTTITVTLPDGTTVVIKVTQNGEGPYIYDVSTEPPAAAPSPSLVSAGG [r13_56_JUSTAS],1.1 ± 0.038 kcal/mol
2,SAGGKYVIIMFPLPPNLEVEIEYPGVPVHRTPNGSLMFQIPPNEPIRIKIKNPNGEEEELPINIFPLSAGGS [r8_72_TrROS],2.33 ± 0.1 kcal/mol
3,SAGGSAGGSAGGGKLRIKLYHPETGKISEIEVEVPDKPLEEVLEELEKELGVEVVDASLESAGGSAGGSAGG [r7_590_TrMRF],1.68 ± 0.045 kcal/mol
4,SAGGKPKVEIKIEEIPVDGELYLVIEIKVEEKNATLTLTLPNGEEITMEFDEETGTVRIIARIPLEDLSAGG [r13_380_TrROS_Hall],3.09 ± 0.15 kcal/mol
5,SAGGIDLDDLPPGDIFIFIKIKMEPVKVDDPDGKEYNRMEIEIFIFRFDPPNGKIQFEPIPMEFYIRSAGGS [r8_486_TrROS],3.28 ± 0.064 kcal/mol
6,SAGGSAGGGSLKYTPGVHRLTYYDPATGTTTTLTFTSEEEALEYLKKKYPDVPWKRNPDGTWVLSAGGSAGG [r6_288_JUSTAS],2.15 ± 0.12 kcal/mol
7,SAIEITVMSDSPEEAKEKAKEFANWLQNRMRRDGLPDMPIPIKIEVIPVPPPKPKPKRDPDDGEWKPDPSAG [r14_475_TrROS],0.731 ± 0.34 kcal/mol
8,SAGGSAIKLPPGVKIEYHMHPDGYMTITIEYPNGRPIEIPMRMDPNGPREMTPDQIRDFIKELLKNSAGGSA [r15_780_TrROS],2.33 ± 0.026 kcal/mol
9,SAGFTIEIENEDGKKITFRFPGWKIEIYPKDGIIMMRYPEENMSIMIKVDPNKIKIQVYDGGKWRWFPISAG [r5_786_TrROS],3.92 ± 0.08 kcal/mol
10,SAPDWVKIKFPFRFYNPDPDGKPMAKMKLEIEVYPSPGAYMAKIEDPNFGMKITFPFDSPEEVKDFLQNSAG [r14_508_TrROS],1.14 ± 0.25 kcal/mol
11,SAGGLKIPVGSAEDALKAFEAIEEPVLVRTKDRKFVRELKLEDIKELVEKGVEFEFVLPSELPEEERKESAG [r5_677_TrMRF],0.573 ± 0.21 kcal/mol
12,SAGGSAGGSAMKVSTTPVTLPNGESATLETLPDGTKVLKVGDKYIVVYPSGEVKEVPLEELLSAGGSAGGSA [r18_379_JUSTAS],1.76 ± 0.046 kcal/mol
13,SGLLEKFLKEAEEWIKKLGLKVKPGEKVEIPIPFENNLIAKIEFYPGEKIIKVVLIGENKPVEYKFKIEKSA [r9_426_TrMRF],2.32 ± 0.17 kcal/mol
14,SAGGSAGGSMRTITYEFPPGTTKEEVIEKVKELAKKEGLPIEKIESITEDPETGTYTVTVVVKSAGGSAGGS [r12_131_JUSTAS],4.65 ± 0.14 kcal/mol
15,SAGGSAGGSAGGSMATITPEGDKYLVTITNPDGSTTTKEFDSLEEVKKLPSSYPIEFSDSAGGSAGGSAGGS [r4_447_JUSTAS],0.802 ± 0.026 kcal/mol
16,SAGGKKKKTIVIVLEVSEEEAEKIIEALKKELEKKGFKIEKIEVRKVPDKPMVIVTIKLENGEELTFISAGG [r13_421_TrROS_Hall],2.64 ± 0.055 kcal/mol
17,SAGSIEAAVEALEKELREKGYKVSVELVETDPSDPNRLNLVIRVTVEGFSPESKPLGKKEETYVIEGGSAGG [r19_418_JUSTAS],1.45 ± 0.069 kcal/mol
18,SAGGSAGGSAGGMSSTVSLSTSFLPNGEKVVTTTTTFTDSSTTTTTTTTTTVALPPPSVVSAGGSAGGSAGG [r7_495_JUSTAS],0.984 ± 0.093 kcal/mol
19,SAGGSKVTLEVNEDGTVTLTVTRPDGKKVTLTITKNEDGTYTIRDEETGKTITVPAGMSIEELLKASAGGSA [r2_338_TrROS_Hall],5.17 ± 0.14 kcal/mol
20,SAGGSAGGSPEVLASFPLKDGSVVIVARRPGEIRVLVVKSSDLENIPELKDIKVFPTFGDDPVSAGGSAGGS [r12_343_TrMRF],1.18 ± 0.077 kcal/mol
21,SAGGSAGGSAFIRAEYKLPENKVLEIEIPVPESVLKKMSIEEVKELFKKLGLPDDVKIEFYDESAGGSAGGS [r12_742_TrMRF],1.78 ± 0.15 kcal/mol
